The values that follow come from patent US20220403023A1.

For assay [1], the target named is cynomolgus monkey CD47 on engineered CHO-K1 cells (cynomolgus monkey). The assay is described as follows: FACS on CHO-K1 cells expressing cynomolgus CD47 (CHOK1-cynoCD47), goat anti-human IgG-Fc PE.
Assay [2] concerns the target human CD47 on engineered CHO-K1 cells (human) (UniProt Q08722). Description: competition FACS: CHO-K1 cells expressing human CD47, antibody titrated together with human SIRPα-His (1 µg/mL), bound SIRPα detected with anti-His-biotin and streptavidin-PE.
The target in assay [3] is human CD47 ECD protein (human) (UniProt Q08722). Description: ELISA on plate-coated human CD47 ECD (1 µg/mL), goat anti-human IgG-Fc-HRP, OD450. (In general: In an ELISA, binding on a coated surface is turned into a signal by an enzyme label.)
For assay [4] the target is unchanged. The assay is described as follows: competition ELISA: plate-coated human CD47 ECD (1 µg/mL), antibody titrated together with human SIRPα-His (1 µg/mL), bound SIRPα detected with anti-His-HRP.
Assay [5] deals with human CD47 on engineered CHO-K1 cells (human) (UniProt Q08722). Description: FACS on CHO-K1 cells expressing human CD47 (CHOK1-huCD47), goat anti-human IgG-Fc PE; blank (Neg) 34.8.
Assay [6] has the same target. The assay is described as follows: competition FACS against human SIRPα-His (1 µg/mL) on CHOK1-huCD47 cells; ligand only 1086.
The target in assay [7] is CD47 on human red blood cells (human) (UniProt Q08722). Description: FACS on human red blood cells, goat anti-human IgG-Fc PE.
The target of assay [8] is human CD47 ECD protein (human) (UniProt Q08722). The assay is described as follows: competition ELISA against human SIRPα-His (1 µg/mL) on plate-coated human CD47 ECD; ligand only 1.438.
Assay [9] has the same target. Description: ELISA on plate-coated human CD47 ECD (1 µg/mL), goat anti-human IgG-Fc-HRP, OD450; blank (Neg) 0.102.
The target of assay [10] is CD47 on human red blood cells (human) (UniProt Q08722). Description: FACS on human red blood cells, goat anti-human IgG-Fc PE; blank (Neg) 232.
The target in assay [11] is cynomolgus monkey CD47 on engineered CHO-K1 cells (cynomolgus monkey). Description: FACS on CHO-K1 cells expressing cynomolgus CD47 (CHOK1-cynoCD47), goat anti-human IgG-Fc PE; blank (Neg) 47.6.
Assay [12] deals with human CD47 on engineered CHO-K1 cells (human) (UniProt Q08722). The assay is described as follows: FACS on CHO-K1 cells expressing human CD47 (CHOK1-huCD47), goat anti-human IgG-Fc PE.

cynomolgus monkey CD47 on engineered CHO-K1 cells (cynomolgus monkey), sequence (chain, as listed by the source, change not shown): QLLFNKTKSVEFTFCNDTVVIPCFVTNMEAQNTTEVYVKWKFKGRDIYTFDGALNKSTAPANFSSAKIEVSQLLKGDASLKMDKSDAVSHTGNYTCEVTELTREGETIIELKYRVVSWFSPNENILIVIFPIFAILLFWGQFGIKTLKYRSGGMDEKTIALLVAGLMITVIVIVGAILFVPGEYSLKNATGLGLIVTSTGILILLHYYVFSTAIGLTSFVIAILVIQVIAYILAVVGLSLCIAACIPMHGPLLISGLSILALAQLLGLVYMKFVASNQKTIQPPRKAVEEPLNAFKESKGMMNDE

B1: W345-BMK1.uIgG4PE.K (antibody, from another filing, V domains shown)
VH: QMQLVQSGAEVKKTGSSVKVSCKASGFNIKDYYLHWVRQAPGQALEWMGWIDPDQGDTEYAQKFQDRVTITRDRSMSTAYMELSSLRSEDTAMYYCNAAYGSSSYPMDYWGQGTTVTV
VL: NIQMTQSPSAMSASVGDRVTITCKASQDIHRYLSWFQQKPGKVPKHLIYRANRLVSGVPSRFSGSGSGTEFTLTISSLQPEDFATYYCLQYDEFPYTFGGGTKVEIK
The term EC50 denotes the concentration at which the effect is half-maximal. For orientation: IC50 means the concentration that inhibits the measured activity by half. Regarding B1, the half-maximal effective concentration (EC50) in assay [1] was 340 pM; in assay [3] it was 19 pM; in assay [7], 690 pM; in assay [12] it was 430 pM. The results for the concentration for half-maximal inhibition (IC50) in assay [2] and in assay [4] were 510 pM and 970 pM, respectively. Further, the Max MFI in assay [5] came to 50000 MFI; in assay [10], 42800 MFI; in assay [11], 34200 MFI. The Max Inhibit% in assay [6] is 71.3%; in assay [8], 91.7%. In [6], the Min MFI came out at 312 MFI. The molecule further had a Min OD in [8] of 0.12 OD450. Besides, the Max OD in assay [9] came to 1.92 OD450.

B2: W345-BMK4.uIgG4.SPK (antibody, from another filing, V domains shown)
VH: QVQLQESGPGLVKPSGTLSLTCAVSGVSIRSINWWNWVRQPPGKGLEWIGEIYHSGSTNYNPSLKSRVTISVDKSKNQFSLKLNSVTAADTAVYYCARDGGIAVTDYYYYGLDVWGQGTTVTVSS
VL: EIVLTQSPATLSLSPGERATLSCRASESVSSNLAWYQQKPGQAPRLLIYGAFNRATGIPARFSGSGSGTDFTLTISSLEPEDFAVYYCQQRSDWFTFGGGTKVEIK
Regarding B2, the concentration giving a half-maximal response (EC50) in assay [1] was 38900 pM; in assay [3] it was 38 pM; in assay [7] it was 4820 pM; in [12], 1220 pM. The figures for the IC50 in [2] and in assay [4] were 1920 pM and 2840 pM, respectively. In addition, the Max MFI was found to be 55400 MFI in [5], 37600 MFI in assay [10] and 30600 MFI in [11]. Moreover, the Max Inhibit% in [6] was 67.4%; in [8], 90.5%. In addition, the Min MFI in assay [6] was found to be 354 MFI. The Min OD in [8] worked out at 0.137 OD450. Also, the Max OD in [9] turned out to be 1.82 OD450.
